Test results as given in article PMC11218354.

Key:
nucleolin [1] = biological target: nucleolin (UniProt P19338); assay: SPR; details: SPR: 1x PBS, nucleolin on CM5 chip, analyte 0.156-10 uM, regeneration 50 mM NaOH, temperature not stated, ELONA: 1x PBS, 1 mM MgCl2, 0.05% Tween 20, 1 uM …
nucleolin [2] = biological target: nucleolin (UniProt P19338); assay: ELONA; details: 1 mM Mg2+; U6 = 5-fluorouridine (5FU replaces T6; printed F); ELONA: 1x PBS, 1 mM MgCl2, 0.05% Tween 20, 1 uM biotin

nucleolin, sequence (P19338 2-710): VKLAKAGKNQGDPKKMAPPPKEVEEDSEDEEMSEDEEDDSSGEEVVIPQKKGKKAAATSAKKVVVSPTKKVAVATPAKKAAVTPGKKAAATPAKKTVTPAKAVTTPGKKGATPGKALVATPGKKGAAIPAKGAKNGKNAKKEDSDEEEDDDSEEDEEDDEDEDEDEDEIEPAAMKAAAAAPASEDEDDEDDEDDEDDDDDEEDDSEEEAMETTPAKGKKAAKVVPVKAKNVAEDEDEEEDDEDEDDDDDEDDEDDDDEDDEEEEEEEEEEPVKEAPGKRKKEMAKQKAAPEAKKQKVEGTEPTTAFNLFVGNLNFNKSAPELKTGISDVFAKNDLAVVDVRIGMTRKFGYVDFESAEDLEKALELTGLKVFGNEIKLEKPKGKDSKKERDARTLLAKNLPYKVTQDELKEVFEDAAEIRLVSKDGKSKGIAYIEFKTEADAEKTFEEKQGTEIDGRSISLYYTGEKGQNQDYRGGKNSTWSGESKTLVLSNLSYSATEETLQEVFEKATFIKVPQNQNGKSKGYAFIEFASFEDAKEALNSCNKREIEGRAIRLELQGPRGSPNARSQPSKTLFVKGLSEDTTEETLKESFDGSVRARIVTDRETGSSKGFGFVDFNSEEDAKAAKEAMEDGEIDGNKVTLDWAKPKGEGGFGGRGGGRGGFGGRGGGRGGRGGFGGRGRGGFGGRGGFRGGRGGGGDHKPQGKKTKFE

In the case of “GGTGGUGGTGGTTGTGGTGGTGGTGG [FASP (FA-paclitaxel, thioether linker)]”, the Kd (nucleolin [1]; U6 = 5-fluorouridine (5FU replaces T6), 3'-amino DNA conjugated to paclitaxel through thioether linker) is reported as 61.7 nM.
In the case of GGTGGTGGTGGTTGTGGTGGTGGTGG [AS1411], the Kd (nucleolin [1]) is reported as 69.1 nM.
“GGTGGUGGTGGTTGTGGTGGTGGTGG [FA, biotinylated (sequence 2)]” was tested, and the binding signal (nucleolin [2]) was > 100 % of AS1411.
For “GGTGGTGGTGGTTGTGGTGGTGGTGG [ASP (AS1411-paclitaxel, thioether linker)]”, the Kd (nucleolin [1]; 3'-amino DNA conjugated to paclitaxel through thioether linker) was 253 nM.
“GGTGGUGGTGGTTGTGGTGGTGGTGG [FA (sequence 2, 5FU at site 6 of AS1411)]” was tested, and the Kd (nucleolin [1]; U6 = 5-fluorouridine (5FU replaces T6; printed F)) was 24.8 nM.
